{"source": "paper doi:10.1101/2021.05.23.445342", "about": "(2021)", "binders": {"B1": {"name": "Biotin-Cys-AKAP5c_(ILVF->SA) (domain or fragment)", "chain": "CVAEETKPKDTELSQESDFKENGITEEKSKSEESKRMEPIAIIITDTEISEFDVTKSKNVPKQASASAENEQVGVFANDNGFEDRTSEQYETASAETASSLVKNAAQSSAEQSANEMASDDNKINNLLQ", "modifications": "biotin (EZ-Link Maleimide-PEG2-Biotin) on the unique added N-terminal Cys"}}, "target": "Calcineurin (human PPP3CA / PPP3R1 heterodimer) (human, UniProt Q08209 1-521; P63098 1-170)", "test": "SPR; apparent, steady-state fit", "data": [{"binder": "B1", "values": [{"measurement": "Kd", "value": 550, "unit": "nM"}]}]}
